# Assay results taken from article PMC10114367 (Fluids and Barriers of the CNS, 2023).
# Entries after “also recorded” stand apart in the source; their conditions may differ.
# How the values were obtained:
# [1] = Distribution of ^125I-insulin and ^125I-S961 following ICV delivery; format: in vivo, CD-1 mice
# Protocol: The scalp was reflected in anesthetized mice and a hole was drilled 1 mm lateral and 0.2 mm posterior to the Bregma. […] Brains were removed between 2 and 60 min later and dissected into regions. […] Weighed brain regions and serum were counted in a gamma counter (Wizard2, Perkin Elmer, Waltham, MA, USA). […] The %Inj was divided by the weight of the region (g/region) or the volume serum measured (ul/serum) to calculate the %Inj/g and %Inj/ml. Pilot studies were performed to identify ventricular injection using this method.
# [2] = cited from earlier work
# [3] = test system: blood-brain barrier (BBB); experiment: Whole brain vascular space / BBB permeability to ^99mTc-albumin following CNS treatment; format: in vivo, CD-1 mice
# Protocol: For all radioactive studies, the right jugular vein and left carotid artery were exposed. […] Mice were injected IV with the radioactive tracer 10 min later. […] The whole brain, olfactory bulb, and in some cases the hypothalamus were removed and weighed. […] Each mouse yielded a single serum sample and time-matched brain sample. Exposure time was calculated from the formula:1 [drawing 1] , where Am is the level of radioactivity (CPM) per gram of brain tissue at time (t), Cpt is the level of radioactivity (CPM) per ml arterial serum at time t, Ki (μl/g-min) is the steady-state rate of unidirectional solute influx from blood to brain. Vi (μl/g) is the level of solute in rapid, reversible equilibrium between plasma and brain. Subtracting ratios for ^99mTc-albumin from the corresponding ^125I-insulin brain/serum (B/S) ratio yielded a delta B/S ratio, which corrects the B/S ratio for ^125I-insulin for vascular space. The linear portion of the relation between the delta B/S ratio versus exposure time is represented in the figures and was used to calculate the Ki (μl/g-min) with its standard error term, and the y-intercept determined representing the Vi(μl/g).
# [4] = Immunoactive serum insulin measurement (MSD mouse insulin kit) after ICV treatment; format: in vivo, CD-1 mice; conditions: male, kit cross reacts with human insulin
# Protocol: Whole blood was centrifuged at 3,200xg for 10 min. Serum was collected, aliquoted, and frozen at -80 °C until measurement. […] This kit cross reacts with human insulin.
# [5] = test system: insulin transport across the blood-brain barrier (BBB); experiment: ^125I-insulin blood-to-brain BBB pharmacokinetics by multiple-time regression analysis (MTRA) after CNS treatment; format: in vivo, CD-1 mice; conditions: for Ki of ^125I-insulin (unidirectional influx blood to brain) / Vi of ^125I-insulin (reversible vascular binding): male mice; for Ki of ^125I-insulin (unidirectional influx blood to brain): MTRA slope ± SE; for Vi of ^125I-insulin (reversible vascular binding): MTRA y-intercept
# Protocol: For all radioactive studies, the right jugular vein and left carotid artery were exposed. […] The whole brain, olfactory bulb, and in some cases the hypothalamus were removed and weighed. […] Each mouse yielded a single serum sample and time-matched brain sample. Exposure time was calculated from the formula:1 [drawing 1] , where Cp is the level of radioactivity (CPM) in serum at time (t). […] Vi (μl/g) is the level of solute in rapid, reversible equilibrium between plasma and brain. […] The linear portion of the relation between the delta B/S ratio versus exposure time is represented in the figures and was used to calculate the Ki (μl/g-min) with its standard error term, and the y-intercept determined representing the Vi(μl/g). Regression analyses and other statistical analyses were performed with Prism 9.0 (GraphPad Softward Inc., San Diego, CA, USA). For all MTRA pharmacokinetic studies, the slope of the linear regression lines (Ki), reported with their correlation coefficients (r), and y-intercepts (Vi) were compared statistically using Prism equivalent to an analysis of covariance (ANCOVA). For these studies, the individual data points are presented in the representative Figures. For the regional studies, the regional B/S levels for each sex were reported with their standard error terms and analyzed by a two-way analysis of variance (ANOVA) followed by Tukey's post hoc test when appropriate.
# [6] = target: insulin transport across the blood-brain barrier (BBB); conditions: per mouse; cited from earlier work
# Protocol: The average blood volume of a mouse is about 77–80 ml/kg. Given that our male CD-1 mice are approximately 30 g at the time of study, these mice have around 2.4 ml of blood. […] Therefore, while th ...
# [7] = test system: regional brain vascular space; experiment: Regional ^99mTc-albumin brain/serum ratios (vascular space) following CNS treatment; format: in vivo, CD-1 mice; conditions: olfactory bulb; male; 30 min after 1 µg IN insulin
# Protocol: For the regional studies, brain and serum were collected at a single time point post central nervous system (CNS) manipulation. For IN studies following ICV delivery, S961 (1 µg in PB) or vehicle was given ICV, and IN ^125I-insulin was immediately administered. 30 min later, brain and serum were collected. […] For IV studies following ICV delivery, S961 (1 µg in PB) or vehicle was given ICV and 10 min later, IV ^125I-insulin and ^99mTc-albumin was injected. For the IV studies, brain and serum were collected 5 min later. Olfactory bulb (OB) and the whole brain dissected into 10 regions were weighed: striatum (St), frontal cortex (FC), hypothalamus (Hy), hippocampus (HC), thalamus (Th), parietal cortex (PC), occipital cortex (OC), cerebellum (CB), midbrain (MB), and pons-medulla (PM). Whole brain (WB) is the summed value from individual regions. The levels of radioactivity in serum (50 µl) and brain samples were counted in a gamma counter (Wizard2, Perkin Elmer, Waltham, MA, USA). %Inj/g for IN distribution and Delta B/S ratios following IV administration were calculated as described above. ^99mTc-albumin B/S ratios are also presented to identify changes in regional vascular space following CNS manipulation.
# [8] = olfactory bulb, 1 µg ICV insulin 10 min before IV ^125I-insulin
# [9] = olfactory bulb, 1 µg IN insulin 30 min before IV ^125I-insulin
# [10] = whole brain, 1 µg ICV insulin 10 min before IV ^125I-insulin
substance,measurement,setting,value
^125I-insulin: human insulin radioactively labeled with ^125I; tracer for BBB transport,amount of ^125I-insulin entering the blood following ICV delivery,"[1]; mouse, in vivo",< 3 %Inj/ml
same,time by which tracer is distributed throughout the brain after ICV delivery,"[1]; mouse, in vivo",≤ 5 min
same,time to appearance in serum after ICV injection,"[1]; mouse, in vivo",≤ 5 min
same,^125I-insulin present in whole brain after IN delivery,"[2]; mouse, in vivo",approximately 0.13 %Inj/g
same,time of peak brain level after IN administration,"[2]; mouse, in vivo",about 30 min
^99mTc-albumin: bovine serum albumin labeled with Technetium-99m; marker for vascular space,^99mTc-albumin whole brain B/S ratio,"[3]; mouse, in vivo, iv",8 to 12 µL/g
human insulin,change in serum insulin level vs vehicle,[4]; 30 min after 1 µg ICV human insulin,nearly doubled; also recorded: two-fold increase
same,rise in serum insulin level,[4]; 30 min after 1 µg human insulin ICV,5 ng/mL
same,Ki of ^125I-insulin (unidirectional influx blood to brain),"[5]; hypothalamus, 1 µg IN insulin 30 min before IV ^125I-insulin, regression ns",0.57 ± 0.88 µL/g/min
same,slowing of ^125I-insulin blood-to-brain transport rate vs vehicle,"[5]; hypothalamus, male, 1 µg IN insulin, 30 min",about 85%
same,Ki of ^125I-insulin (unidirectional influx blood to brain),[5]; [8],~ 0.3 µl/g-min
same,Ki of ^125I-insulin (unidirectional influx blood to brain),"[5]; olfactory bulb, 1 µg ICV insulin 10 min before IV ^125I-insulin, listed as Insulin",0.35 ± 0.16 µL/g/min
same,Vi of ^125I-insulin (reversible vascular binding),[5]; [8],14.6 ± 2.2 µL/g
same,Ki of ^125I-insulin (unidirectional influx blood to brain),[5]; [9],2.74 ± 0.52 µL/g/min
same,Vi of ^125I-insulin (reversible vascular binding),[5]; [9],9.7 ± 3.9 µL/g
same,decrease of ^125I-insulin blood-to-brain transport rate vs vehicle,"[5]; olfactory bulb, male, 1 µg ICV insulin, 10 min",about 82%
same,Ki of ^125I-insulin (unidirectional influx blood to brain),[5]; [10],~ 0.3 µl/g-min
same,Ki of ^125I-insulin (unidirectional influx blood to brain),"[5]; whole brain, 1 µg ICV insulin 10 min before IV ^125I-insulin, listed as Insulin",0.30 ± 0.11 µL/g/min
same,Vi of ^125I-insulin (reversible vascular binding),[5]; [10],7.9 ± 1.5 µL/g
same,expected amount per gram of brain tissue after 1 µg ICV administration,[1]; calculated from %Inj/g at 10 min and 1 µg ICV dose,approximately 605 ng per gram of brain tissue
same,level in whole brain after ICV delivery,"[1]; radiolabelled tracer ICV, whole brain at 10 min",approximately 60.5 %Inj/g
same,IV bolus of unlabeled insulin necessary to reduce the ^125I-insulin BBB Ki by 50%,[6],121 ng
same,effect on whole brain vascular space or BBB leakage measured with ^99mTc-albumin,"[3]; 1 µg ICV or IN insulin (males), 1 µg ICV S961 (males, females)",no effect
same,insulin present in hypothalamus after IN delivery,"[2]; hypothalamus, 30 min after IN insulin delivery, male CD-1 mice",0.23 %Inj/g
same,increase in ^99mTc-albumin vs vehicle,[7],43%
